# Measurements taken from article PMC8782954, “Interplay between an ATP-binding cassette F protein and the ribosome from Mycobacterium tuberculosis” (Nature Communications, 2022).
# B1: MtbEttA (energy-dependent translational throttle A from Mycobacterium tuberculosis, Rv2477c) (natural protein)
# chain: SMAEFIYTMKKVRKAHGDKVILDDVTLSFYPGAKIGVVGPNGAGKSSVLRIMAGLDKPNNGDAFLATGATVGILQQEPPLNEDKTVRGNVEEGMGDIKIKLDRFNEVAELMATDYTDELMEEMGRLQEELDHADAWDLDAQLEQAMDALRCPPADEPVTNLSGGERRRVALCKLLLSKPDLLLLDEPTNHLDAESVQWLEQHLASYPGAILAVTHDRYFLDNVAEWILELDRGRAYPYEGNYSTYLEKKAERLAVQGRKDAKLQKRLTEELAWVRSGAKARQAKSKARLQRYEEMAAEAEKTRKLDFEEIQIPVGPRLGNVVVEVDHLDKGYDGRALIKDLSFSLPRNGIVGVIGPNGVGKTTLFKTIVGLETPDSGSVKVGETVKLSYVDQARAGIDPRKTVWEVVSDGLDYIQVGQTEVPSRAYVSAFGFKGPDQQKPAGVLSGGERNRLNLALTLKQGGNLILLDEPTNDLDVETLGSLENALLNFPGCAVVISHDRWFLDRTCTHILAWEGDDDNEAKWFWFEGNFGAYEENKVERLGVDAARPHRVTHRKLTRG
# notes: also called Mtb Rv2477c
# What was measured:
# [1] = target: B1; test: cryo-EM structure; conditions: both partners purified
# [2] = target: the molecule itself; test: SEC
Binder,binding result [1],stoichiometry N [2]
ribosomal protein uS7 of the Mtb 30S subunit (natural protein) MPRKGPAPKRPLVNDPVYGSQLVTQLVNKVLLKGKKSLAERIVYGALEQARDKTGTDPVITLKRALDNVKPALEVRSRRVGGATYQVPVEVRPDRSTTLALRWLVGYSRQRREKTMIERLANEILDASNGLGASVKRREDTHKMAEANRAFAHYRW,binds,
B1,,2
